Source: publication PMC9364715
Like-named read-outs stand apart in the source and are kept apart here.

Assays:
[1] = molecular target: Ad5 hexon with DogTag inserted at HVR5, on Ad-DogTag virions (human adenovirus 5 (Ad5)) (UniProt P04133); assay: SDS-PAGE gel shift
[2] = molecular target: Ad5 hexon with DogTag inserted at HVR5, on Ad-DogTag virions (human adenovirus 5 (Ad5)) (UniProt P04133); assay: SDS-PAGE gel shift; remark: listed apart in the source

Substance | percent of hexon covalently coupled (% of hexon protein) [1] | percent of hexon covalently coupled [1] | percent of hexon covalently coupled [2]
DogCatcher (designed binder) | > 90 | – | –
DogCatcher-NANP9 (designed binder) | – | > 90 % of hexon | –
DogCatcher-NANP18 (designed binder) | – | > 90 % of hexon | > 90 % of hexon
